Measured values reported in US20230064703A1.

B1: humanized antibody 45F1F3 VH1.1 + VL1 (antibody, V domains shown)
VH: QVQLQESGPGLVKPSQTLSLTCTVTGYSITIDYAWNWIRQPPGKGLEWIGYISNSGYTSYNPSLKSRVTFSRDTSKNQFSLKLSSVTAADTAVYYCTRSGHYDLFDYWGQGTTVTVSS
VL: DVVMTQSPLSLPVTLGQPASISCKSSQSLFDRDGKTYLSWFQQRPGQSPRRLIYLVSNLDSGVPDRFSGSGSGTDFTLKISRVEAEDVGVYYCWQGTHFPYTFGGGTKVEIK
B2: humanized antibody 270C5C10 VH1.2 + VL1 (antibody, V domains shown)
VH: QVQLVQSGAEVKKPGASVKVSCKASGYTFTDNYMNWVRQAPGQSLEWIGDINPNNGGSRYKEKFKDRATLTVDTSIRTAYMELSRLRSDDTAVYYCANPGSYGFAYWGQGTLVTVSS
VL: DVVMTQSPLSLPVTLGQPASISCKSSQSLLDSDGRTYLNWFQQRPGQSPRRLIYLVSQLDSGVPDRFSGSGSGTDFTLKISRVEAEDVGVYYCWQGTHFPWTFGGGTKLEIK
B3: chimeric antibody 223F12C4 (human IgG1) (antibody, V domains shown)
VH: QVQLQQSGAELVKPGASVKVSCKASGYSFTSYWIHWVKQRPGQGLEWIGRIHPSDGDIDHNEKFKGKATLTVDKSSSTAYMQLTSLTSEDSAVYYCLCYIMDYWGQGTSVTVSS
VL: DIQMNQSPSSLSASLGDTIAITCHASQNINVWLSWYQQKPGNIPKLLIYKAAKLQTGVPSRFSGSGSGTGFTLTISSLQPEDIATYYCHQGQDYPLTFGAGTKLELKR
B4: chimeric antibody 204C10G12 (human IgG1) (antibody, V domains shown)
VH: QVQLQQPGAELVKPGASVKMSCKASGYTFTSYWITWVKQRPGQGLEWIGDIYPGSDSTNYNEKFKNKATLTVDTSSSTAYMQLSSLTSEDSAVYYCARGDDFWYFDVWGTGTTVTVSS
VL: DVLMTQTPLSLPVSLGDQASISCRSSQSIVHSNGNTYLEWYLQKPGQSPKLLIYKVSNRFSGVPDRFSGSGSGTDFTLKISRVEAEDLGVYYCFQGSHVPLTFGAGTKLELKR
B5: chimeric antibody 274C7H2 (human IgG1) (antibody, V domains shown)
VH: QVQLQQSGAELAKPGASVKLSCKASGYTFTSYWMHWVKQRPGQGLEWIGYINPSSGYTKYNQKFKDKATLTADKSSSTAYMQLSSLTYEDSAVYYCARNPSYDYYAMDYWGQGTSVTVSS
VL: QAVVTQESALTTSPGETVTLTCRSSTGAVTTSNYANWVQEKPDHLFTGLIGGTNNRAPGVPARFSGSLIGDKAALTITGAQTEDEAIYFCALWYSNHFIFGSGTKVTVLR
B6: chimeric antibody 225A8D9 (human IgG1) (antibody, V domains shown)
VH: QVQLQQSGPELVKPGASVKISCKASGYAFSSSWMNWVKQRPGKGLEWIGRIYPGDGNINYDGKFKGEATLTADKSSSTAYIQLSSLTSEDSAVYFCARSAWLGKTYVMDYWGQGTSVTVSS
VL: EIVVTQSPAITAASLGQKVTITCSASSSVTYMNWYQQKSGTSPKPWIYEISKLASGVPAHFSGSGSGTSYSLTISSLEAEDAAIYYCQQWNFPFTFGSGTKVEIRR
B7: chimeric antibody 384H3H11 (human IgG1) (antibody, V domains shown)
VH: QVQLKQSGPGLVQPSQSLSITCTVSGFSLTSYGVHWVRQSPGKGLEWLGVIWSGGSTDYNAAFISRLSISKDNSKSQVFFKMNSLQANDTAIYYCARIGLRSFAYWGQGTLVTVSA
VL: DIVMTQSPSSLTVTAGEKVTMSCKSSQSLLNSGNQKNYLTWYQQKPGQPPKLLIYWASTRESGVPDRFTGSGSGTDFTLTISSVQAEDLAVYYCQNDYSYPFTFGSGTKLEIKR
B8: chimeric antibody 172H7B9(H-La) (human IgG1) (antibody, V domains shown)
VH: QVTLKESGPGILQSSQTLSLTCSFSGFSLSPSGMGVTWIRQPSGKGLEWLAHIYWDDVKRYNPSLKSRLTISKDTSRNQVFLKITGVDTADTATYYCARRGSYSDYGGWSFDVWGTGTTVTVSS
VL: DIVMTQSPSSLSVSAGEKVTMSCKSSQSLFNSGNQKNYLAWYQQKPGQPPKLLIYGASTRESGVPDRFTGSGSGSDFTLTISSVQAEDLAVYYCQNDHSYPPTFGSGTKLEIKR
B9: anti-GITR mouse monoclonal antibody 223F12C4 (antibody, V domains shown)
VH: QVQLQQSGAELVKPGASVKVSCKASGYSFTSYWIHWVKQRPGQGLEWIGRIHPSDGDIDHNEKFKGKATLTVDKSSSTAYMQLTSLTSEDSAVYYCLCYIMDYWGQGTSVTVSS
VL: DIQMNQSPSSLSASLGDTIAITCHASQNINVWLSWYQQKPGNIPKLLIYKAAKLQTGVPSRFSGSGSGTGFTLTISSLQPEDIATYYCHQGQDYPLTFGAGTKLELK
B10: anti-GITR mouse monoclonal antibody 225H7D12 (antibody, V domains shown)
VH: QVQLQQSGAEVMKPGASVKLSCKTTGYRFTGYWIEWVKQRPGHGLEWIGEILPGSGVSNNNEKFRDKATFTADTSSNTAYIQLSSLTTDDSAIYYCARKASYYTMDYWGQGTSVTVSS
VL: QIVLTQSPAIMSASLGERVTMTCTASSSVSSFYFHWYQQKPGSSPKLWIYSISNLASGVPTRFSGSGSGTSYSLTISSMEAEDAATYYCHQYHRSPRTFGGGTKLEIK
B11: anti-GITR mouse monoclonal antibody 204C10G12 (antibody, V domains shown)
VH: QVQLQQPGAELVKPGASVKMSCKASGYTFTSYWITWVKQRPGQGLEWIGDIYPGSDSTNYNEKFKNKATLTVDTSSSTAYMQLSSLTSEDSAVYYCARGDDFWYFDVWGTGTTVTVSS
VL: DVLMTQTPLSLPVSLGDQASISCRSSQSIVHSNGNTYLEWYLQKPGQSPKLLIYKVSNRFSGVPDRFSGSGSGTDFTLKISRVEAEDLGVYYCFQGSHVPLTFGAGTKLELK
B12: anti-GITR mouse monoclonal antibody 274C7H2 (antibody, V domains shown)
VH: QVQLQQSGAELAKPGASVKLSCKASGYTFTSYWMHWVKQRPGQGLEWIGYINPSSGYTKYNQKFKDKATLTADKSSSTAYMQLSSLTYEDSAVYYCARNPSYDYYAMDYWGQGTSVTVSS
VL: QAVVTQESALTTSPGETVTLTCRSSTGAVTTSNYANWVQEKPDHLFTGLIGGTNNRAPGVPARFSGSLIGDKAALTITGAQTEDEAIYFCALWYSNHFIFGSGTKVTVL
B13: anti-GITR mouse monoclonal antibody 225A8D9 (antibody, V domains shown)
VH: QVQLQQSGPELVKPGASVKISCKASGYAFSSSWMNWVKQRPGKGLEWIGRIYPGDGNINYDGKFKGEATLTADKSSSTAYIQLSSLTSEDSAVYFCARSAWLGKTYVMDYWGQGTSVTVSS
VL: EIVVTQSPAITAASLGQKVTITCSASSSVTYMNWYQQKSGTSPKPWIYEISKLASGVPAHFSGSGSGTSYSLTISSLEAEDAAIYYCQQWNFPFTFGSGTKVEIR
B14: anti-GITR mouse monoclonal antibody 223H11H1 (antibody, V domains shown)
VH: EVQLQQSGPELVKPGASVKISCKASGYTFTAHYMNWVKKSQGKSLEWIGDINPDNGIIRYNQKFKDKATLTVDKSSSTVFLEFRSLASEDSAVYYCARREALDYWGQGSSVTVSS
VL: DVLMTQIPLSLTVSLGDQASISCRSSQSIVYSNGKVYLNWYQQKPGQSPKLLIYKVSDRFSGVPDRFSGSGSGTDFTLKINRVEAEDLGVYYCLQGSHIPWTFGGGTKLEIK
B15: anti-GITR mouse monoclonal antibody 384H3H11 (antibody, V domains shown)
VH: QVQLKQSGPGLVQPSQSLSITCTVSGFSLTSYGVHWVRQSPGKGLEWLGVIWSGGSTDYNAAFISRLSISKDNSKSQVFFKMNSLQANDTAIYYCARIGLRSFAYWGQGTLVTVSA
VL: DIVMTQSPSSLTVTAGEKVTMSCKSSQSLLNSGNQKNYLTWYQQKPGQPPKLLIYWASTRESGVPDRFTGSGSGTDFTLTISSVQAEDLAVYYCQNDYSYPFTFGSGTKLEIK
B16: anti-GITR mouse monoclonal antibody 45F1F3 (antibody, V domains shown)
VH: DVQLQESGPGLVKPSQSLSLTCTVTGYSITIDYAWNWIRQFPGNKLEWMGYISNSGYTSYNPSLKSRISFTRDTSKNQFFLQLNSVTPEDSATYYCTRSGHYDLFDYWGQGTTLTVSS
VL: DVVMTQAPLTLSVTIGQPASISCKSSQSLFDRDGKTYLSWLLERPGQSPKRLIYLVSNLDSGVPDRFTGSGSGTDFTLKISRVEAEDLGVYYCWQGTHFPYTFGGGTKVEMK

Each binder was assayed against human GITR expressed on Cho-K1 cells (human) (UniProt Q9Y5U5) (assay: FACS binding assay with GITR/Cho-K1, humanized antibody).
Sequence of human GITR expressed on Cho-K1 cells (human) (Q9Y5U5 26-241): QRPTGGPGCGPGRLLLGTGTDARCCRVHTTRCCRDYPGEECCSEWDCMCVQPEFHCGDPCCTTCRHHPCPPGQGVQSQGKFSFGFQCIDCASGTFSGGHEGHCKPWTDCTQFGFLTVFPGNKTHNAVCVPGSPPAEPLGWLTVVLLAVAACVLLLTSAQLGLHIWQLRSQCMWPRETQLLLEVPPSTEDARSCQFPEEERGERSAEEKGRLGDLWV

In order of rising EC50:
1. B2  0.0424 µg/mL
2. B1  0.107 µg/mL

The binders below were run against human GITR expressed on Cho-K1 cells (human) (UniProt Q9Y5U5) (assay: FACS, chimeric antibody on GITR/Cho-K1 cells, geometric mean, 4-parameter fit).

In order of falling EC50:
1. B4  19400 µg/mL
2. B5  331 µg/mL
3. B7  219 µg/mL
4. B3  1.59 µg/mL
5. B6  0.252 µg/mL
6. B8  0.0499 µg/mL

Each binder was assayed against human GITR expressed on Cho-K1 cells (human) (UniProt Q9Y5U5) (assay: FACS, Cho-K1 cells expressing human GITR, mouse mAb, iFluor 647 anti-mouse IgG detection).

In order of rising EC50:
1. B11  0.000199 µg/mL
2. B9  0.000454 µg/mL
3. B16  0.000508 µg/mL
4. B10  0.000522 µg/mL
5. B14  0.000931 µg/mL
6. B13  0.0026 µg/mL
7. B15  0.00497 µg/mL
8. B12  0.141 µg/mL
